Laboratory results taken from patent publication US20210070876A1 (LES LABORATOIRES SERVIER, published 2021).

What was measured:
mouse CD73 = target: T1, mouse CD73 (mouse, UniProt Q61503 29-549, limits assumed); experiment: not described (statement in the methods of Example 22)
T1 construct: Only named in a sentence on cross-reactivity
T1 sequence (looked up): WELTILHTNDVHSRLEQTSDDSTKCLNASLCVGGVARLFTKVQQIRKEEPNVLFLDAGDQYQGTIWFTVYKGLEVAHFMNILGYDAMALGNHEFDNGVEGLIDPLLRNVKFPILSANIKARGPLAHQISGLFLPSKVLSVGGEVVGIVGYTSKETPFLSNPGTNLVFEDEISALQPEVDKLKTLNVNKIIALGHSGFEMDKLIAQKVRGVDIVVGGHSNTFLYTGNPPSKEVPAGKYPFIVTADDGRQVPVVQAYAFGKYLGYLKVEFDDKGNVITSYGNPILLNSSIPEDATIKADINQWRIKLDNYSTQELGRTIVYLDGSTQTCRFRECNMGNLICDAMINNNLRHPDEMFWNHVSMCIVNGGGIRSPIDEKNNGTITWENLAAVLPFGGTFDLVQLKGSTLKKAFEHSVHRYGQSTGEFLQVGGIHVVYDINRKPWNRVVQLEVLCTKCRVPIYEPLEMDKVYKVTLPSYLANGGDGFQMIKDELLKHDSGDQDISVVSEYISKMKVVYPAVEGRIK

[1] = target: T2, His-tagged human CD73 ECD (human, UniProt P21589 27-549); experiment: SEC-MALS, mAb:CD73 0.5:1
T2 construct: runs as a homodimer of about 124-125 kDa in SEC-MALS; also called CD73-His; CD73-His ECD antigen
T2 sequence: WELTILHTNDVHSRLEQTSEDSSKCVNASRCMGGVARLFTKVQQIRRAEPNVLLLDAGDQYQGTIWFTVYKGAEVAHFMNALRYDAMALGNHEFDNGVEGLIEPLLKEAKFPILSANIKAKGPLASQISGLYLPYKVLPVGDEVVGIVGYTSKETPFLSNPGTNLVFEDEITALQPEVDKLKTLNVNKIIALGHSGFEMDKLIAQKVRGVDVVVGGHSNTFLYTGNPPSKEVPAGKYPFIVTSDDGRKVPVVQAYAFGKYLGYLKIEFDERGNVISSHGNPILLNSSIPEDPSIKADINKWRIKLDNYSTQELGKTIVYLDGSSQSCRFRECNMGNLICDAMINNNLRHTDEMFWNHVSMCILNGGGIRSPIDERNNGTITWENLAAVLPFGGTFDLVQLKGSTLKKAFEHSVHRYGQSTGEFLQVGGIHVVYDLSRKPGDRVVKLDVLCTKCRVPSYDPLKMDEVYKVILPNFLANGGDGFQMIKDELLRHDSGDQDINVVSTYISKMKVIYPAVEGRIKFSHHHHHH
Protocol: (§1) Anti-CD73 antibodies and His-tagged CD73 were analyzed in different ratios as well as individually to analyze the size of complexes formed between CD73 homodimer and anti-CD73 antibodies. Samples were prepared by mixing […] of CD73-His with 900, 450, 90 or 0 μmol of antibody diluted into PBS, pH 7.4. Samples were incubated for 30 min at room temperature followed by separation using a UHPLC UltiMate 3000 (Thermo Scientific) and SEC X-Bridge column (Waters) at a flow rate of 1.2 mL/min. Sample running buffer was 0.01 M Citrate, 250 mM L-Arginine.HCl, pH 6.0. Following HPLC separation, all samples were analyzed using a MiniDAWN TREOS MALS detector (Wyatt) and Optilab T-rEX refractive index detector (Wyatt). Data plots were generated using Graph Pad Prism.

[2] = target: T2, His-tagged human CD73 ECD; experiment: SEC-MALS, mAb:CD73 0.1:1
Protocol: as §1

[3] = target: T3, human CD73 expressed on cells (human, UniProt P21589 27-549); experiment: flow cytometry on CHO-S cells transiently expressing human CD73, AF647 anti-human IgG (H+L) secondary, GeoMean
T3 construct: also called 5'-NT; human CD73 on CHO-S cells
T3 sequence: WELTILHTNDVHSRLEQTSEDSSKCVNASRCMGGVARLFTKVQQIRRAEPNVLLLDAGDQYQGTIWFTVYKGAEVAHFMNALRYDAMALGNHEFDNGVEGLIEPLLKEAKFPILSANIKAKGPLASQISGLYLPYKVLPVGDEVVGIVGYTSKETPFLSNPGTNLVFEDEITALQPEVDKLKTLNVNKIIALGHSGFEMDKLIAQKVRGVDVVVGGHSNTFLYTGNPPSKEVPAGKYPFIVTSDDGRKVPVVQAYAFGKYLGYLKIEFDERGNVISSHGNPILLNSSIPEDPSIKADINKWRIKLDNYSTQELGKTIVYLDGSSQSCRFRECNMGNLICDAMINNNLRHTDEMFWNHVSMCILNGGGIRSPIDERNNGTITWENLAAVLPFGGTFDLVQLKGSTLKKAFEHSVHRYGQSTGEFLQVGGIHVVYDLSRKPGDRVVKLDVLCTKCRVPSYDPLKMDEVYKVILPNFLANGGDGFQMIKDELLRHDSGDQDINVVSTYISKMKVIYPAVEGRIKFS
Protocol: The anti-CD73 antibodies were incubated with the hamster CHO-S cell line transiently expressing human or cynomolgus CD73 for 30 minutes at 4° C. The cells were washed twice and subsequently incubated for an additional 20 minutes with AF647-conjugated secondary anti-human IgG (H+L) antibody. After the washing step, antibody binding was detected using the high-throughput flow cytometer iQue Screener PLUS (Sartorius) measuring the GeoMean of AF647 signal in each well. Every concentration was assayed in triplicate and a 12-point titration curve was generated for each antibody.

[4] = target: T2, His-tagged human CD73 ECD; experiment: SEC-MALS, mAb:CD73 1:1
Protocol: as §1

B1: antibody 21127 (antibody, human IgG1, kappa, L234A L235A, V domains shown)
VH: EVQLVESGGGLVQPGRSLRLSCAASGFTFDDFAMHWVRQAPGKGLEWVSGISWNSGNIGYADSVKGRFTISRDNAKNSLYLQMNSLRAEDTALYYCAKDKSGSPYYYYGMDVWGQGTMVTVSS
VL: DIQMTQSPSSVSASVGDRVTITCRATQGISRRLAWYQQKPGKAPKLLIYAASSLQSGVPSRFSGSGSGTDFTLTISSLQPEDFATYYCQQANSFPLTFGGGTKVEIKR
notes: Fully human IgG1-LALA (L234A/L235A), kappa
binding result (mouse CD73): no binding | molecular mass of complex, Peak 2 (MW, kDa) [1]: 277 kDa | molecular mass of complex, Peak 2 (MW, kDa) [2]: 282 kDa | EC50 (read off the curve) [3]: ~5 ng/mL | molecular mass of complex, Peak 2 (MW, kDa) [4]: 269 kDa
